In data set [1] the test system is RELA TALEN11-1R (right monomer) (synthetic (Xanthomonas TALE)?). In words: cell_activity. Particulars: TALEN pair mRNA 2 ng/ul zygote injection, 8 of 39 piglets; 21% of embryos tested in vitro; assayed as pair with left monomer; left/right assignment to ….
For data set [2], the system named is RELA TALEN11-1L (left monomer) (synthetic (Xanthomonas TALE)?). In words: cell_activity. Conditions: TALEN pair mRNA 2 ng/ul zygote injection, 8 of 39 piglets; 21% of embryos tested in vitro; assayed as pair with right monomer; left/right assignment to ….

In turn, “AGTACCCTGAGGCTAT (double strand) [RELA TALEN right half-site]” yielded an activity (% edited of piglets born) in data set [1] of 21.
As for “GCCCCCCCACACAGCTG (double strand) [RELA TALEN left half-site]”, the activity (% edited of piglets born) in data set [2] is 21.
